B1: HDV Ribozyme (parent)
chain: GGCCGGCAUGGUCCCAGCCUCCUCGCUGGCGCCGGCUGGGCAACAUUCCGAGGGGACCGUCCCCUCGGUAAUGGCGAAUGGGACCCA

This data set covers variants of B1. In words: self-cleavage, relative activity (ratio to wild type); higher = more cleavage; co-transcriptional.
On to GGCCGGCAUGGUCCCAGACUCCUCGCUGGCGCCGGCUGGGCAACAUUCGGAGGGGACCGUCCCCUCGGUAAUGGCGAAUGGGACCCA [C18A C49G], for which the self-cleavage worked out at 0.119.

For GGCCGGCAUGGUCCCAGCCUCCUCGCUGGCGCCGGCUGGGCAACAUUCCGAGGGGACCGUCCCCUCAGUAAUGGCGUAUGGGACCCA [G67A A77U], the self-cleavage is 0.339.

GGCCGGUAUGGUCCCAGCCUCCUCGCUGGCGCCGGCUGGGCAACAUUCCGAGGGGACCGUCCCCUCUGUAAUGGCGAAUGGGACCCA [C7U G67U]: the self-cleavage stood at 0.684.

Take GGCCGGCAUGGUCCCAGCCUCCUCGCUGGCGCCGGCCGGGCAACAUUCCGAGGGGACCGUCCCCUCGGUAAUGGCGAAUGGGACCUA [U37C C86U]: the self-cleavage worked out at 1.06.

As to GGCCGGCAUGGUCCCAGCCUCCUCGCUGGAGCCGGCGGGGCAACAUUCCGAGGGGACCGUCCCCUCGGUAAUGGCGAAUGGGACCCA [C30A U37G], the self-cleavage is 0.

In the case of GGCGGGCAUGGUCCCAGCCUCCUCGCUGGCGCCGGCUGGGCAACAUUCCGAGGGGAUCGUCCCCUCGGUAAUGGCGAAUGGGACCCA [C4G C57U], the self-cleavage was determined as 0.529.

As to GGCCGGCAUGGUCCCAGCCUCCUCGCUGGCGCCGUGUGGGCAACAUUCCGAGGGGACCGUCCCCUCGGUAAUGGCGAAUGGGACCCA [G35U C36G], the self-cleavage is 0.104.

As to GGCCGGCAUGGUCCCAGCCUCCUCGCAGGCGCCGGCUGGGCAACAUUCCGAGGGGACCGUCCCCUUGGUAAUGGCGAAUGGGACCCA [U27A C66U], the self-cleavage came out at 0.789.

On to GGCCGGCAUGGUCCCAGCCUCCUCGCUGGCGCCGGCUCGGCAACAUUCCGAGGGGACCGUCCCCCCGGUAAUGGCGAAUGGGACCCA [G38C U65C], for which the self-cleavage worked out at 0.391.

For GGCCGGCAUGGUCCCAGCCUCCUCGCUGGCGCCGGCUGGGCAACAUUCCGAGGGGGCCGUGCCCUCGGUAAUGGCGAAUGGGACCCA [A56G C61G], the self-cleavage is 1.12.

With GGCCGGCAUGGUCCCAGCCUCCUCGCUGGCGCCGGCUGGGCAACUUUCCGAGGGGACCGUCCCCUCAGUAAUGGCGAAUGGGACCCA [A45U G67A], the self-cleavage came out at 0.717.

For GGCCGGCAUGGUCCCAGCCUCCUCGCUGGCGCCGGCUGGGCAACAUUCCGAGGGGAGCGUUCCCUCGGUAAUGGCGAAUGGGACCCA [C57G C61U], the self-cleavage is 0.967.

GGCCGGCAUGGUCCCAGCCUGCUCGCUGGCGCCGGCUGGGCAACAUUCCGAGGGGACCGUCCCCUCGGUAAUGGCAAAUGGGACCCA [C21G G76A]: the self-cleavage turned out to be 0.0386.

Regarding GGCCGGCAUUGUCCCCGCCUCCUCGCUGGCGCCGGCUGGGCAACAUUCCGAGGGGACCGUCCCCUCGGUAAUGGCGAAUGGGACCCA [G10U A16C], the self-cleavage was determined as 0.906.

With GGCCGGCAUGGUCCCAGCCUCCUCGCUGGCGCCGGCUGGGCAACAUUCCGGGGGGACCGUCCCCUCGGUAAUGGCGAAUGUGACCCA [A51G G81U], the self-cleavage was 0.356.

For the variant GGCCGGCAUGGACCCAGCCUCCUCGCUGGCGCCGGCUGGGCAAAAUUCCGAGGGGACCGUCCCCUCGGUAAUGGCGAAUGGGACCCA [U12A C44A], the self-cleavage is 0.

For the variant GGCCGGCAUGGUCCCAGCCUCCUCGCUGGCGCCGGCUGGGCAACAUUCCGAGCGGACCGUCCCCUCGAUAAUGGCGAAUGGGACCCA [G53C G68A], the self-cleavage amounted to 0.577.

As for GGCCGGCAUGGUCCCAGCCUCCUCGCUGGCGCCGGCUGUGCAACAUUCCGAGGGCACCGUCCCCUCGGUAAUGGCGAAUGGGACCCA [G39U G55C], the self-cleavage stood at 0.698.

In the case of GGCCGGCAUGGUCCCAGCCUGCUCGCUGGCGCCGGCUGGGCAACAUUCCGAGGGGACCGUCCCCUCGGUAAUGGCGAAUGGGAUCCA [C21G C84U], the self-cleavage was 0.0231.

With GGCCGGCAUGGUCCCAGCCUCCUCGCUGGCGCCUGCUGGGCAACAUUCCGAGGGGACCGUCCCCUCGGUAAUGGCGAAUGGGACGCA [G34U C85G], the self-cleavage amounted to 0.128.

Consider GGCCGUCAUGGUCCCAGCCUCCUCGCUGGCGCCGGCUCGGCAACAUUCCGAGGGGACCGUCCCCUCGGUAAUGGCGAAUGGGACCCA [G6U G38C], for which the self-cleavage was determined as 0.095.

In the case of GGCCGGCAUGGUCCCAGCCUCCUCGCUGGCGCCGGCUGGGCAACAUUCCGAGGGGACCGUCCUCUCGGUAAUGGCGAAUGGGACCCU [C63U A87U], the self-cleavage turned out to be 1.01.

GGCCGGCAUGGUCCCAGCCUCCUCGCUGGCGCCGGCUGGGCACCAUUCCGAGGGGAUCGUCCCCUCGGUAAUGGCGAAUGGGACCCA [A43C C57U]: the self-cleavage worked out at 0.491.

For the variant GGCCGGCAUGGUCCCAGCCUCCUCGCUGGCGGCGGCUGGGCAACAUUCCGAGGGGACCGUCCCCUCGGUAAUGGCGAAUGGGUCCCA [C32G A83U], the self-cleavage came to 0.166.

As for GGCCGGCAUGGUCCCAGCCUCCUCGCUGGCGCCGGCUCGGCAACAUUCCUAGGGGACCGUCCCCUCGGUAAUGGCGAAUGGGACCCA [G38C G50U], the self-cleavage worked out at 0.157.

On to GGCCGGCAUGGUCCCAGCCUCCUCGCUGGCGCCGGCUGGGCAACAUUCCGAGGGGACCGUCCCCUCGAUAAUGGCGAAUGGUACCCA [G68A G82U], for which the self-cleavage was found to be 0.324.

Turning to GGCCGGCAUGGUCCCAGCGUCCUCGCUGGCGCCGGCUGGGCAACAUUCCGAGGGGACCGUCCCCUCGGUAAUCGCGAAUGGGACCCA [C19G G73C], the self-cleavage amounted to 0.0244.

GGCCGGCAUGGUCCCAGCCUCCUCGCUGCCGCCGGCUGGGCAACAUUCCGAUGGGACCGUCCCCUCGGUAAUGGCGAAUGGGACCCA [G29C G52U]: the self-cleavage was determined as 0.

Turning to GGCCGGCAUGGUCCCAGCCUCCUCGCUGGCGCCGGCUGGGCAACAUUCCGAGGGGACCGUCCGCUCGGUAGUGGCGAAUGGGACCCA [C63G A71G], the self-cleavage came out at 0.656.

As for GGCCGGCAUGGUCCCAGCCACCUCGCUGGCGCCGGCUGGGCAACAUUCCGAGGGGACCGUCCCCUCGGUAAUAGCGAAUGGGACCCA [U20A G73A], the self-cleavage was 0.0791.

For the variant GGCCGGCAUGGUCCCAGCCUCCUCGCUGGUGCCGGCUGGGCAACAUUCCGAGGGGACCGUCCCCUCGGUAAUGGCGAAUGGAACCCA [C30U G82A], the self-cleavage amounted to 0.229.

In the case of GGCCGGCAUGGUCCCAGCCUCCUCGCUGGCGCCGGCUGGGCAACAUUCCGAGGGGACCUUCCCCUCGGUAAUGGCGAAUCGGACCCA [G59U G80C], the self-cleavage turned out to be 0.141.

The values are drawn from the RNAGym collection of RNA variant scans (doi:10.7554/elife.80360).
